Experimental data from US20160347810A1 (AFASCI, published 2016).
No end group written: not given here.

B1: AFA-Peptide 3 (MP-3) (peptide)
peptide: H-NFVPTNVGPFAF-NH2
notes: Synthetic dodecapeptide NH2-N-F-V-P-T-N-V-G-P-F-A-F-CONH2; also called AFA-CGRP receptor antagonist peptide 3
B2: AFA-Peptide 6 (MP-6) (peptide)
peptide: H-NFIPTNVGPFAF-NH2
notes: Analog of AFA-peptide 3: NH2-N-F-I-P-T-N-V-G-P-F-A-F-CONH2
B3: AFA-Peptide 7 (MP-7) (peptide)
peptide: H-NFLPTNVGPFAF-NH2
notes: Analog of AFA-peptide 3: NH2-N-F-L-P-T-N-V-G-P-F-A-F-CONH2
B4: AFA-Peptide 8 (MP-8) (peptide)
peptide: H-NLVPTNVGPFAF-NH2
notes: Analog of AFA-peptide 3: NH2-N-L-V-P-T-N-V-G-P-F-A-F-CONH2
B5: AFA-Peptide 9 (MP-9) (peptide)
peptide: H-NFFPTNVGPFAF-NH2
notes: Analog of AFA-peptide 3: NH2-N-F-F-P-T-N-V-G-P-F-A-F-CONH2
B6: AFA-Peptide 10 (MP-10) (peptide)
peptide: H-NFAPTNVGPFAF-NH2
notes: Analog of AFA-peptide 3: NH2-N-F-A-P-T-N-V-G-P-F-A-F-CONH2

Molecular target: T1, human calcitonin CGRP1 (CGRP1) membrane (human, UniProt Q16602 23-461; O60894 27-148)
T1 construct: whole, on cells; Purchased membrane preparation (Perkin Elmer), homogenised in assay buffer; the receptor stood in membranes, not intact cells; also called CGRP receptors; CGRP receptor
T1 sequence (Q16602 23-461, chain 1 of 2): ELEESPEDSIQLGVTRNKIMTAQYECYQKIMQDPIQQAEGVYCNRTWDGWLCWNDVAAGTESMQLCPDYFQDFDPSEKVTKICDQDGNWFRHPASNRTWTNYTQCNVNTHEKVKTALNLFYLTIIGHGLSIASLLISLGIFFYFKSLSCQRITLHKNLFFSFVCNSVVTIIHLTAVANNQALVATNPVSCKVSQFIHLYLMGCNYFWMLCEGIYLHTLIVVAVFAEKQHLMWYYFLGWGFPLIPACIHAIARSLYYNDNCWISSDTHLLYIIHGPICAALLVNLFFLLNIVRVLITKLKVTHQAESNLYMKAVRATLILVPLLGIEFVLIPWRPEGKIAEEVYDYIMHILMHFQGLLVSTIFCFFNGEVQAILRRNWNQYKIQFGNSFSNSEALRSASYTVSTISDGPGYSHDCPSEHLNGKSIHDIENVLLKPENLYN
T1 sequence (O60894 27-148, chain 2 of 2): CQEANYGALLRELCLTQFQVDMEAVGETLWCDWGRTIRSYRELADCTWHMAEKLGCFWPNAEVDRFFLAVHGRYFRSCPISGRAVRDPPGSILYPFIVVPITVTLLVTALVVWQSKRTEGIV
Assay: displacement of 0.24 nM [125I]-CGRP from human CGRP1 receptor membranes, filtration; Ki by Cheng-Prusoff; mean ± SD
Protocol: CGRP1 membrane was homogenized in the assay buffer (50 mM Tris-HCl pH 7.4, 5 mM MgCl₂, 0.5% BSA, 0.05% Tween20). […] After 1 h of incubation, at room temperature, samples were filtered, using a Tomtec cell harvester, through glass fiber filters that had been presoaked in 0.05% polyethyleneimine and washed with the cold Tris buffer (50 mM Tris-HCl pH7.4). Filters were counted on a betaplate reader (Wallac).

Binder | Ki
B1 | 33.3 nM
B2 | 63.7 nM
B3 | 54.8 nM
B4 | 315 nM
B5 | 49.6 nM
B6 | 33.4 nM
YVPTAVGPFAF-NH2 (also called conventional CGRP 27-37) [CGRP 27-37] | 697 nM
